From paper PMC5018465 (Biochimica et biophysica acta, 2016)

Molecular target: the molecule itself
Experiment: SEC-MALS

Protein	binding result
αAΔ70–88 deletion mutant of human αA-crystallin (natural protein, UniProt P02489 1-173, looked up) MDVTIQHPWFKRTLGPFYPSRLFDQFFGEGLFEYDLLPFLSSTISPYYRQSLFRTVLDSGISEVRSDRDVQDDFVEIHGKHNERQDDHGYISREFHRRYRLPSNVDQSALSCSLSADGMLTFCGPKIQTGLDATHAERAIPVSREEKPTSAPSS	binds
αAΔ70–76 deletion mutant of human αA-crystallin (natural protein, UniProt P02489 1-173, looked up) MDVTIQHPWFKRTLGPFYPSRLFDQFFGEGLFEYDLLPFLSSTISPYYRQSLFRTVLDSGISEVRSDRDVKHFSPEDLTVKVQDDFVEIHGKHNERQDDHGYISREFHRRYRLPSNVDQSALSCSLSADGMLTFCGPKIQTGLDATHAERAIPVSREEKPTSAPSS	binds
